Laboratory results taken from article PMC10023680 (2023).

B1: GST-tagged ELMO1-RBD (residues 1-113), wild-type [human] / RhoG (residues 1-184) [human] (parent complex)
chain 1: MPPPADIVKVAIEWPGAYPKLMEIDQKKPLSAIIKEVCDGWSLANHEYFALQHADSSNFYITEKNRNEIKNGTILRLTTSPAQNAQQLHERIQSSSMDAKLEALKDLASLSRD
chain 2: not shown

Variants of: B1
Assay: SPR; read at the highest RhoG concentration, about 35 µM; RhoG in the active GTPγS-bound form; read off a plot

response	Variant
~64%	chain 1 K20E
~59%	chain 1 Y18A
~18%	chain 1 L21A
~78%	chain 1 N58A

The remaining lines, values behind:

Variant	response
chain 1 E13A	~46%
chain 1 K9A	~0%

Variants of: B1
Assay: SPR; RhoG in the active GTPγS-bound form; n = 3 independent experiments

Kd	Variant
44.3 µM	chain 1 E13A
163 µM	chain 1 L21A
10 µM	chain 1 N58A
